Measured values published in patent US6699715 (Bristol-Myers Squibb, dated 2004).

Tests used:
human CD28 [1] = target: T1, human CD28 (human, UniProt P10747 19-220); experiment: cell-based or functional assay
T1 construct: whole, on cells; also called CD28 receptor; CD28 CHO cells

L6 antigen [2] = target: T2, L6 antigen (human, UniProt P30408 1-202); experiment: flow cytometry on L6 positive H2981 tumor cells
T2 construct: whole, on cells; also called tumor associated antigen L6; L6 molecule
T2 sequence (looked up): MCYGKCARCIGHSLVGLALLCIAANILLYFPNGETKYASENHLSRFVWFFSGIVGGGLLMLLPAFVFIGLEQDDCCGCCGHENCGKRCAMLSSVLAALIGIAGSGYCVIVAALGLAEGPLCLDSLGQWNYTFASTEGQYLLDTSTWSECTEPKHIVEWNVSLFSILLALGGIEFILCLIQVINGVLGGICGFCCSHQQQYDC

human CD28 [3] = target: T1, human CD28; experiment: flow cytometry on CD28 CHO cells, FITC anti-human IgG
Method: (§1) FIGS. 15a/b/c are line graphs showing that the bispecific 9.3/L6 sFvIg fusion protein binds to L6+ H2981 tumor cells and to CD28+ CHO cells. Panel 15A: L6+ H2981 tumor cells were incubated with L6 sFvIg ( - - - - ) at 0.5 μg/ml or 9.3 sFvIg ( . . . . ) at 0.5 μg/ml or 9.3/L6 sFvIg (_____) fusion protein at 0.5 μg/ml or with medium alone ( . . . . ). Panel 15B: CD28 CHO cells were incubated with 9.3 sFvIg ( - - - - ) at 1 μg/ml or 9.3/L6 sFvIg fusion protein (_____) at 1 μg/ml, or with medium alone ( . . . . ). Bound protein was detected with FITC conjugated goat anti-human IgG at 1:100. Panel 15C: CD28+ PHA blasts were incubated with FITC conjugated L6 α-idiotype mAb 13B ( . . . . ) as negative control, bispecific 9.3/L6 sFvIg at 0.5 μg/ml and bound protein detected with FITC conjugated L6 α-idiotypic mAb 13B ( - - - - ). Preincubation of cells with unlabelled 9.3 sFvIg inhibited binding of bispecific 9.3/L6 sFvIg as shown by a significant reduction in FITC-13B staining (_____). A total of 10,000 cells were analyzed per sample.
(§2) Binding activity of the 9.3 and 9.3/L6 sFvIg Fusion Protein: The binding of each sFvIg fusion protein was assayed by immunostaining and FACS analysis. […] 9.3 sFvIg and 9.3/L6 sFvIg were incubated with CD28 CHO cells and binding was detected using FITC anti-human IgG as shown in FIG. 15B. […]

L6 antigen [4] = target: T2, L6 antigen; experiment: flow cytometry on L6 positive H2981 tumor cells, FITC anti-human IgG
Method: as §1, §2

Molecule: bispecific 9.3/L6 sFvIg fusion protein (bispecific antibody)
- [3H]-thymidine incorporation of PHA blasts, 9.3/L6 at 0.05 µg/ml, +H3347 (human CD28 [1]): 97800 cpm
- [3H]-thymidine incorporation of PHA blasts, 9.3/L6 at 0.05 µg/ml, no H3347 cells (human CD28 [1]): 4000 cpm
- [3H]-thymidine incorporation of PHA blasts, 9.3/L6 at 0.1 µg/ml, +H3347 (human CD28 [1]): 115000 cpm
- [3H]-thymidine incorporation of PHA blasts, 9.3/L6 at 0.1 µg/ml, no H3347 cells (human CD28 [1]): 9600 cpm
- [3H]-thymidine incorporation of PHA blasts, 9.3/L6 at 0.5 µg/ml, +H3347 (human CD28 [1]): 145000 cpm
- [3H]-thymidine incorporation of PHA blasts, 9.3/L6 at 0.5 µg/ml, no H3347 cells (human CD28 [1]): 69200 cpm
- [3H]-thymidine incorporation of PHA blasts, untransfected H3347 preincubated with 9.3/L6 at 1 µg/ml, cells washed 3× (human CD28 [1]): 98000 cpm
- proliferation of T cell blasts with 9.3/L6 sFvIg alone (FIG. 16) (human CD28 [1]): > 0.1 µg/mL
- concentration of native L6 antibody that gives the same staining as 1 µg/ml of the fusion protein (L6 antigen [2]): 0.5 µg/mL

Molecule: 9.3 monoclonal antibody
- 3H-Thymidine incorporation, + blasts; 9.3 mAb (human CD28 [1]): 58800
- 3H-Thymidine incorporation, + blasts; 9.3 mAb + 187.1 Ab (human CD28 [1]): 98300

B1: 9.3 sFvIg (scFv, not shown: small tags and cut ends)
scFv: DIVLTQSPASLAVSLGQRATISCRASESVEYYVTSLMQWYQQKPGQPPKLLIFAASNVESGVPARFSGSGSGTNFSLNIHPVDEDDVAMYFCQQSRKVPYTFGGGTKLEIKRASGGGGSGGGGSGGGGSLAQVQLKESGPGLVTPSQSLSITCTVSGFSLSDYGVHWVRQSPGQGLECLGVIWAGGGTNYNSALMSRKSISKDNSKGQVFLKMKSLQADDTAVYYCARDKGYSYYYSMDYWGQGTSVTVSS
notes: Anti-human CD28 sFv of mouse mAb 9.3 fused to human Ig; from COS or CHO cells; also called 9.3 sFvIg fusion protein; monospecific 9.3 sFvIg
- binding result (human CD28 [3]): binds
- binding result (L6 antigen [4]): no binding (tested: 1 µg/ml)
